# Test results taken from PMC3562429 (Developmental cell, 2013).
# T1: Aim3 (budding yeast, UniProt P38266 1-947)
# T1 sequence (looked up): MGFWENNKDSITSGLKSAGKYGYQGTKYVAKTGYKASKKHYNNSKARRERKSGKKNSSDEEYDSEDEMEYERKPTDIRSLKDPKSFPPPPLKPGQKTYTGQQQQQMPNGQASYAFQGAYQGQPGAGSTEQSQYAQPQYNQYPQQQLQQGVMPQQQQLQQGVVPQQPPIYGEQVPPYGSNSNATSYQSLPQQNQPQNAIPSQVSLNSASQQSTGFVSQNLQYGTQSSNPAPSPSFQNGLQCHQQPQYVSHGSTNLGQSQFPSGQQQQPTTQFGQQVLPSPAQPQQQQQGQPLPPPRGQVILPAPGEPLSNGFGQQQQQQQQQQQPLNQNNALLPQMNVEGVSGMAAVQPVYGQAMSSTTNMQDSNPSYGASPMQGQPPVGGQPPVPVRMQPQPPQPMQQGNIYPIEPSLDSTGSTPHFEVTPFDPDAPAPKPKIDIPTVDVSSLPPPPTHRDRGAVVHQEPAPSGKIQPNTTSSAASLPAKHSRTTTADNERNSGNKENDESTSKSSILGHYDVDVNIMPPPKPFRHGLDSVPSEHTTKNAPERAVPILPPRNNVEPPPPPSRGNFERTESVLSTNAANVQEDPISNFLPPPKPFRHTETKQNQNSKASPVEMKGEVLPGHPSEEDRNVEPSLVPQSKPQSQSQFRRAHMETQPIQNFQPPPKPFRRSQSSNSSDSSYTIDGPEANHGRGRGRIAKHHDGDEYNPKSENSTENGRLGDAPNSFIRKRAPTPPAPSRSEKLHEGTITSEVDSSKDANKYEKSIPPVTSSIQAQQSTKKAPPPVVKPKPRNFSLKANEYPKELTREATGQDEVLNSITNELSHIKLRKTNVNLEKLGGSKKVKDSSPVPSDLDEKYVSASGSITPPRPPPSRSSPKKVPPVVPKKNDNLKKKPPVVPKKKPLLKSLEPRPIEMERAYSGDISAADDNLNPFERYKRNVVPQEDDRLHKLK
# B1: Abp1-9myc (Actin binding protein 1) (natural protein, budding yeast, UniProt P15891 1-592, looked up)
# chain: MALEPIDYTTHSREIDAEYLKIVRGSDPDTTWLIISPNAKKEYEPESTGSSFHDFLQLFDETKVQYGLARVSPPGSDVEKIIIIGWCPDSAPLKTRASFAANFAAVANNLFKGYHVQVTARDEDDLDENELLMKISNAAGARYSIQTSSKQQGKASTPPVKKSFTPSKSPAPVSKKEPVKTPSPAPAAKISSRVNDNNDDDDWNEPELKERDFDQAPLKPNQSSYKPIGKIDLQKVIAEEKAKEDPRLVQKPTAAGSKIDPSSDIANLKNESKLKRDSEFNSFLGTTKPPSMTESSLKNDDDKVIKGFRNEKSPAQLWAERKAKQNSGNAETKAEAPKPEVPEDEPEGEPDVKDLKSKFEGLAASEKEEEEMENKFAPPPKKSEPTIISPKPFSKPQEPVKAEEAEQPKTDYKKIGNPLPGMHIEADNEEEPEENDDDWDDDEDEAAQPPLPSRNVASGAPVQKEEPEQEEIAPSLPSRNSIPAPKQEEAPEQAPEEEIEEEAEEAAPQLPSRSSAAPPPPPRRATPEKKPKENPWATAEYDYDAAEDNELTFVENDKIINIEFVDDDWWLGELEKDGSKGLFPSNYVSLGN
# Target: T1, Aim3
# Assay: pull-down
binder,measurement,value
B1,binding result,binds
